Bridge positions count the residues as written; N and C are the ends. I, II: the chains in the order shown.
B1: CC-Di-AI (peptide)
peptide: Ac-GEIAALEKEIAALECEIAALEQGWW-NH2
notes: also called acidic peptide of CC-Di-AIBI
B2: CC-Tri3 (peptide)
peptide: Ac-GEIAAIKKEIAAIKQEIAAIKQGYG-NH2
notes: also called homotrimer CC-Tri3; homotrimeric coiled coil
B3: CC-Di-B (peptide)
peptide: Ac-GKIAALKKKNAALKQKIAALKQGYW-NH2
notes: Free module
B4: CC-Tri3-CC-Di-AQ (other)
peptide 1: Ac-GEIAAIKQEIAAIKCEIAAIKQGYG-NH2
peptide 2: Ac-GEIAALEQENAALECEIAALEQGWW-NH2
modifications: disulfide I:15-II:15 (inferred)

Columns and labels:
CC-Di-BI = target: T1, CC-Di-BI (N-terminal acetyl; C-terminal amide); experiment: method not stated for this variant
T1 construct: also called basic peptide of CC-Di-AIBI
T1 peptide: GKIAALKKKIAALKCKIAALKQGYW

CC-Di-AB = target: T2, CC-Di-AB (N-terminal acetyl (Ac-); C-terminal amide (printed -NH)); experiment: CD thermal melting of the mixture, the same as the average of the two independent profiles
T2 construct: also called heterodimer CC-Di-AB; heterodimeric coiled coil
T2 peptide 1: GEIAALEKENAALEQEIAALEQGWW
T2 peptide 2: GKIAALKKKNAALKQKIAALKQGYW

[1] = target: the molecule itself; experiment: CD-monitored thermal denaturation over a range of peptide concentrations, extrapolated to 20 °C; dissociation of the homotrimer (two-state)
[2] = target: the molecule itself; experiment: CD spectroscopy of the peptide alone (no homomeric coiled coil)
CC-Di-B = target: B3; experiment: CD-monitored thermal denaturation over a range of peptide concentrations, extrapolated to 20 °C; dissociation of the heterodimer (two-state)
CC-Tri3-CC-Di-BQ = target: T3, CC-Tri3-CC-Di-BQ (N-terminal acetyl; C-terminal amide; Cys in an asymmetric disulfide with the Cys of the trimer chain; N-terminal acetyl; C-terminal amide; Cys in an asymmetric disulfide with the Cys of the CC-Di-BQ …); experiment: mixing with the respective partner in PBS, 50 µM; SEM
T3 peptide 1: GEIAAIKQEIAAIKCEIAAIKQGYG
T3 peptide 2: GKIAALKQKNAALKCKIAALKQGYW

For B1, the “affinity relative to the CC-Di-AB parent” value (CC-Di-BI) was greater than 100 fold.

With B2 the binding result (CC-Di-AB) was “no binding” and the Kd [1] was 0.0399 pM.

For Ac-GEIAALEKENAALEQEIAALEQGWW-NH2 (Free module) [CC-Di-A], the binding result [2] was “no binding (tested: micromolar range)” and the Kd (CC-Di-B) was 58.3 nM.

B3: no binding (tested: micromolar range) [2].

B4: binds (CC-Tri3-CC-Di-BQ).
